B1: SLC35F2 (parent)
chain: FVAFALCMFCLYSFMPLVIKVTSA
B2: KCNA4 (parent)
chain: YQLGEEALLKFREDEGFVREEEDR

Variants of: B1
Assay: protein stability index of a GFP-peptide fusion (GPS, HEK-293T) (PSI 1-6); higher = more stable
Conditions: c terminus: a fixed tail appended
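Further: lentivirally expressed fusions sorted by FACS into six bins by GFP to DsRed ratio, PSI derived from sequencing read proportions per bin multiplied by bin number.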

Protein stability index, by site and new letter:
M8: N 3.69, P 2.4, Q 2.57, R 3.49, S 3.3, T 2.72, V 3.38, W 3.65, Y 3.31
F9: A 2.62, C 2.94, D 3.1, E 3.49, G 1.76, K 3.39, L 2.07, M 3.23, N 2.31, P 2.44, Q 2.59, R 3.23, S 2.61, V 2.56, W 2.68, Y 2.79
C10: A 2.18, D 3.05, E 3.49, F 3.07, G 2.58, H 2.75, I 2.27, K 2.52, L 2.43, M 2.88, N 2.8, P 2.35, Q 3.47, R 3.21, S 3.53, T 2.52, V 3.48, W 2.35, Y 2.28
L11: A 3.07, C 3.54, D 3.52, E 4.11, F 2.21, G 2.39, H 2.99, I 3.19, K 3.17, N 3.45, P 1.84, Q 3.66, R 2.85, S 4.04, T 2.43, V 3, W 2.44, Y 2.67
Y12: A 3.98, C 2.32, D 1.79, E 3.32, F 2.54, G 3.85, H 2.47, I 2.31, K 2.74, L 2.5, M 2.75, N 3.2, P 2.25, Q 3.48, R 2.29, S 3.08, T 2.68, V 2.74, W 2.76
S13: A 2.08, C 2.62, D 4.24, E 3.17, F 2.8, G 3.42, H 3.26, I 3.95, K 3.34, L 3.22, M 2.54, N 3.33, P 2.15, Q 2.36, R 3.03, T 2.97, V 3.39, W 2.54, Y 2.33
F14: A 2.78, C 2.43, D 3.53, E 2.86, G 3.38, H 3.63, I 3.99, K 2.77, L 3.56, M 2.52, N 2.27, P 2.46, Q 2.31, R 3.4, S 3.81, T 2.91, V 3.79, W 3.16, Y 2.41
M15: C 3.39, D 3.13, E 2.25, F 3.1, G 2.42, H 2.97, I 3.14, K 3.67, L 3.33, N 3.43, P 4.92, Q 3.41, R 2.98, S 2.61, T 2.83, V 2.71, W 2.1, Y 3.23
P16: A 3.6, C 3.1, D 2.99, E 1.85, F 2.59, G 2.85, H 3.01, I 2.99, K 2.06, L 2.86, M 1.92, N 3.51, Q 2.65, R 2.79, S 3.48, T 2.05, V 1.69, W 2.66, Y 4.47
L17: A 2.46, C 1.91, D 2.8, E 2.38, F 2.35, G 2.43, H 2.77, I 2.03, K 4.14, M 3.65, N 1.58, P 2.71, Q 3.99, R 2.36, T 2.34, V 3.13, W 2.18, Y 3.6
V18: A 2.91, C 3.04, D 3.27, E 2.87, F 2.85, G 3.68, H 2.9, I 2.35, K 2.63, L 2.65, M 2.51, N 3.17, P 3.36, Q 4.26, R 3.05, S 2.91, T 2.57, W 2.6, Y 2.54
I19: C 2.7, D 2.73, E 2.87, F 2.69, G 3.04, H 2.14, K 3.47, L 3.06, M 2.48, P 2.86, Q 3.62, S 2.42, T 3.51, V 3.21, W 4.11, Y 1.94
K20: A 2.95, C 3.38, D 2.22, E 2.71, F 2.03, G 2.9, H 1.78, I 2.63, L 3.04, M 2.62, N 3.16, P 2.56, Q 3.38, R 3.56, S 2.55, T 3.12, V 2.56, Y 2.76
V21: A 2.26, C 1.7, E 3.06, F 2.01, H 2.9, I 2.6, L 2.06, M 3.27, N 4.29, P 2.76, Q 1.85, R 2.38, S 3.11, W 3.02, Y 3.26
T22: A 2.77, C 2.54, D 2.05, E 3.47, F 2.36, G 2.96, H 3.96, I 2.71, L 3.31, N 3.68, P 3.35, Q 3.07, R 3.29, S 2.33, V 3.01, W 2.77, Y 2.75
S23: A 2.39, C 2.9, D 2.85, E 2.49, F 3.51, G 3.19, I 2.45, K 2, L 2.89, P 2.96, Q 2.39, R 2.78, T 2.71, W 2.54, Y 2.03
A24: C 1.31, D 2.65, E 2.42, H 3.79, I 2.65, K 2.04, L 3.27, M 2.66, N 2.63, P 3.3, R 1.84, S 2.61, T 3.11, V 3.15, W 3.16

Variants of: B2
Assay: as above
Conditions: c terminus: a fixed tail appended

Protein stability index: each site, then its substitutions
Y1: A 5.7, C 5.21, D 5.79, E 5.74, F 4.45, G 5.95, H 5.47, I 5.3, K 5.6, L 4.96, M 5.47, N 5.67, P 5.63, Q 5.41, R 5.81, S 5.53, T 5.57, V 5.58, W 5.25
Q2: A 5.36, C 4.91, D 5.62, E 5.37, F 4.15, G 5.23, H 2.94, I 4.43, K 5.7, L 4.24, M 4.79, N 5.23, P 5.15, R 5.09, S 5.61, T 5.31, V 4.21, W 4.19, Y 4.31
L3: A 5.22, C 4.38, D 5.85, E 5.67, F 4.7, G 4.53, H 5.22

Source: the supplement of paper PMC10567573
